Source: patent US7985404B1, “Reducing hair growth, hair follicle and hair shaft size and hair pigmentation” (Johnson & Johnson Consumer Companies, Inc., priority 1999, dated 2011)

What was measured:
[1] = tested on: trypsin; assay: Enzchek protease digestion fluorescent assay with trypsin; assay type: biochemical; conditions: 100 units of trypsin; increasing concentrations / serial dilutions
Experimental: In order to support the hypothesis that STI and BBI in soymilk are involved in the hair growth effects described above, we tested soymilk for its serine protease inhibitory activity. An enzymatic assay was performed using “Enzchek”, a protease digestion fluorescent test system made by Molecular Probes of Eugene, Oreg. Using 100 units of trypsin (from Sigma chemicals, St. Louis Mo.) the test system produced fluorescence reading of about 1100 units. This reaction was inhibited with increasing concentrations of STI, as expected from a known trypsin inhibitor.

[2] = tested on: C57Bl/6 mice; assay: Depilation-induced hair cycle in C57Bl/6 mice, daily topical treatment; assay type: in vivo, mouse; conditions: day eight of the hair cycle (FIG. 10), PBS-liposome vehicle
Source text: (§1) C57BI/6 or C3H mice (male and female) were obtained from Charles River (Kingston, NY), at 8-10 weeks of age and were in the resting (telogen) phase of their respective hair cycle. Hair growth was induced by wax depilation (plucking) of each respective animal's back fur according to the procedure set forth in Stenn, et al., “Glucocorticoid Effect on Hair Growth Initiation: A Reconsideration,” 6 Skin Pharmacol., 125-134 (1993). In C57Bl/6 and C3H mice, 8-10 weeks old, the growth phase (anagen) starts synchronously in all hair follicles at the time of depilation.
Since the murine hair cycle varies not only between strains, but also amongst individual animals, the status of the hair cycle was analyzed in each animal on study. A 2 cm by 1 cm skin sample was isolated from each mouse with scissors, fixed with a 10% buffered formalin solution having a pH of about 6.9-7.1 at 25° C. (Stephens Scientific), and then formed into a paraffin block according to well-known procedures. The block was then microtomed, and sections were stained with H&E or Fontana-Mason stain. Sections were examined histologically in order to verify the phase of the hair cycle, the size of the hair follicle and hair shaft and the level of hair pigmentation, using procedures well known in the art. Hair length was assessed visually, and by using a low magnification (×8) dissecting microscope. […]

[3] = tested on: C3H mice; assay: Depilation-induced hair cycle in C3H mice, daily topical treatment; assay type: in vivo, mouse; conditions: for hair follicle histology: 1%, day seven of the hair cycle; for hair follicle histology / effect on hair growth and pigmentation: PBS-liposome vehicle; for effect on hair growth and pigmentation: high concentrations; for hair growth, follicle and shaft size, visual observation throughout the hair cycle: in PBS-liposome vehicle (FIG. 9)
Source text: as §1
Since the murine hair cycle varies not only between strains, but also amongst individual animals, the status of the hair cycle was analyzed in each animal on study. A 2 cm by 1 cm skin sample was isolated from each mouse with scissors, fixed with a 10% buffered formalin solution having a pH of about 6.9-7.1 at 25° C. (Stephens Scientific), and then formed into a paraffin block according to well-known procedures. The block was then microtomed, and sections were stained with H&E or Fontana-Mason stain. Sections were examined histologically in order to verify the phase of the hair cycle, the size of the hair follicle and hair shaft and the level of hair pigmentation, using procedures well known in the art. Hair length was assessed visually, and by using a low magnification (×8) dissecting microscope.
In order to verify that the effect of soymilk on hair growth is not specific to C57Bl/6 mice, we repeated the experiment described in Example 4 using the brown haired (Agouti) C3H mice. The results of these experiments were similar both visually and histologically.

| Molecule | inhibition of trypsin reaction [1] | hair follicle histology [2] | hair follicle histology [3] | effect on hair growth and pigmentation [3] | hair growth, follicle and shaft size, visual observation throughout the hair cycle [3] |
| --- | --- | --- | --- | --- | --- |
| STI: soybean-derived serine protease inhibitor protein from Sigma-Aldrich, used in PBS-liposome vehicle (protein, UniProt P01070 25-205, looked up) Trypsin inhibitor A: DFVLDNEGNPLENGGTYYILSDITAFGGIRAAPTGNERCPLTVVQSRNELDKGIGTIISSPYRIRFIAEGHPLSLKFDSFAVIMLCVGIPTEWSVVEDLPEGPAVKIGENKDAMDGWFRLERVSDDEFNNYKLVFCPQQAEDDKCGDIGISIDHDDGTRRLVVSKNKPLVVQFQKLDKESL | inhibited | smaller and less pigmented follicles | reduce hair follicle and hair shaft size and hair shaft pigmentation | substantial | could delay hair growth and reduce hair follicle and hair shaft size |
| BBI: soybean-derived serine protease inhibitor protein from Sigma-Aldrich, used in PBS-liposome vehicle (protein, UniProt P01055 40-110, looked up) Bowman-Birk type proteinase …: DDESSKPCCDQCACTKSNPPQCRCSDMRLNSCHSACKSCICALSYPAQCFCVDITDFCYEPCKPSEDDKEN | – | smaller and less pigmented follicles | reduce hair follicle and hair shaft size and hair shaft pigmentation | substantial | could delay hair growth and reduce hair follicle and hair shaft size |
